These results are taken from patent US20240075105A1.

The assay deals with the cell surface receptor (of interleukin-2) on CTLL-2 cells. The experiment in a line: cell-based or functional assay.

The substance “recombinant human serum albumin/interleukin-2 fusion protein (rHSA/IL-2, code 9222) (ligand)” showed a specific bioactivity (CTLL-2 cell/MTT colorimetry) of 2.46e+06 IU/mg.

“recombinant human interleukin-2/serum albumin fusion protein (rhIL-2/SA, code 9333) (ligand)” came in with a specific bioactivity (CTLL-2 cell/MTT colorimetry) of 2.39e+06 IU/mg.
